Biological target: SARS-CoV-2 WT spike RBD (SARS-CoV-2, wild type, UniProt P0DTC2)
Experiment: SPR; Biacore 2000; […]; 45 μL/min, 180 s binding, […] dissociation; 1:1 binding model
Conditions: both partners purified

Binder | Kd | other
purified monoclonal antibody d7 (S97Y, D54I, N57H) (antibody, V domains shown) VH: QVQLVESGGGVVQPGRSLRLSCAASGFTFSNYAMYWVRQAPGKGLEWVAVISYIGSHKYYADSVKGRFTISRDNSKNTLYLQMNSLRTEDTAVYYCASGSDYGDYLLVYWGQGTLVTVSS VL: QSALTQPASVSGSPGQSITISCTGTSSDVGGYNYVSWYQQHPGKAPKLMIYDVSKRPSGVSNRFSGSKSGNTASLTISGLQSEDEADYYCNSLTSIYTWVFGGGTKLTVL | 0.15 nM | 3 times
purified monoclonal antibody A3 (N57A, L106N) (antibody, V domains shown) VH: QVQLVESGGGVVQPGRSLRLSCAASGFTFSNYAMYWVRQAPGKGLEWVAVISYDGSAKYYADSVKGRFTISRDNSKNTLYLQMNSLRTEDTAVYYCASGSDYGDYNLVYWGQGTLVTVSS VL: QSALTQPASVSGSPGQSITISCTGTSSDVGGYNYVSWYQQHPGKAPKLMIYDVSKRPSGVSNRFSGSKSGNTASLTISGLQSEDEADYYCNSLTSISTWVFGGGTKLTVL | 0.17 nM | 3 times
purified monoclonal antibody d9 (S97Y, D54L, N57H) (antibody, V domains shown) VH: QVQLVESGGGVVQPGRSLRLSCAASGFTFSNYAMYWVRQAPGKGLEWVAVISYLGSHKYYADSVKGRFTISRDNSKNTLYLQMNSLRTEDTAVYYCASGSDYGDYLLVYWGQGTLVTVSS VL: QSALTQPASVSGSPGQSITISCTGTSSDVGGYNYVSWYQQHPGKAPKLMIYDVSKRPSGVSNRFSGSKSGNTASLTISGLQSEDEADYYCNSLTSIYTWVFGGGTKLTVL | 0.17 nM | 3 times
